The values that follow come from EP1340979A2, “Neuropeptide receptor and uses thereof” (Pfizer Limited, priority 2002, dated 2003).

The target of assay [1] is T1, receptor MRGX2 (Homo sapiens, UniProt Q96LB1).
T1 sequence (Q96LB1 1-330): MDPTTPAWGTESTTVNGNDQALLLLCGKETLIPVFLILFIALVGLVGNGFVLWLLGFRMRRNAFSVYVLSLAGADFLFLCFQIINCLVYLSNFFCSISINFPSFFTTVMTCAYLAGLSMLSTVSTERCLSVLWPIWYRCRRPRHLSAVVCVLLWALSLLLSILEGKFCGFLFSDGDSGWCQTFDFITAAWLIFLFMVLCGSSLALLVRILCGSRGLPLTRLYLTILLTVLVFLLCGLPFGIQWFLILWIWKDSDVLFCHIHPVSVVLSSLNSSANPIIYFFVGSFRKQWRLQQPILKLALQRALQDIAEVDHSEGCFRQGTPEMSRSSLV
In words: Functional assay measuring intracellular calcium mobilisation (FLIPR). Format: cell-based. On the set-up: expressed in transfected cells; host or cells: e.g. HEK293 or CHO-K1 engineered to stably express Galpha15 / Gqi-5. The settings on record: for response of the MRGX2 receptor: at a concentration of 1µM. For orientation: A change in cytosolic calcium serves as a functional read-out for many receptors and channels.
Protocol: 5 x 10^6 cells of a suitable host cell line, chosen to express a low number of endogenous receptors (e.g. HEK293 or CHO-K1) and engineered to stably express Gα15 / Gqi-5, were transiently transfected with 7.5 µg of cDNA encoding receptor MRGX2 in a suitable mammalian cell expression vector, or vector alone, using Lipofectamine Plus® reagent (Gibco BRL) as per the manufacturer's protocol. […] If a microtitre plate-based assay was intended, the cells were detached from the flask using Trypsin/EDTA solution (LTI) 24 hours post transfection, and seeded into e.g. a black sided, Poly-D-lysine-treated, 96-well plate (Becton Dickinson) at 5 x 10^4 cells/well density. The plates were left overnight to allow the cells to adhere to the bottom of the wells.
24 hrs post-transfection, the cells were detached from the flask using Trypsin/EDTA solution (LTI) and seeded into a black sided, Poly-D-lysine-treated, 96-well plate (Becton Dickinson) at 5 x 10^4 cells/well density. The plates were left overnight to allow the cells to adhere to the bottom of the wells. The medium was removed from the cells and replaced with 100 µl warm (37°C) dye loading solution (50 µg Fluo3 (Molecular Probes) in 20 µl DMSO + 20% pluronic acid in DMSO, added to 11 ml Dulbecco's Modified Eagles Medium containing 1x Probenecid (100x Probenecid - 0.71 g Probenecid was dissolved in 5 ml 1M NaOH and 5 ml Dulbeccos' Phosphate Buffered Saline (PBS), per plate; Probenecid (Molecular Probes) inhibits activity of the anion transport protein, thus improving dye loading). The plates were then incubated for 1 hr at 37°C. Plates were subsequently washed with 250 µl of wash buffer per well (5 ml 100x Probenecid stock + 495 ml PBS, pH 7.4) 4 times. The plates were returned to the 37°C/5%CO2 incubator for 30 mins prior to processing within the FLIPR® instrument. The FLIPR® processing involved reading the fluorescence for all samples for 2 minutes; during this time the fluorescence baseline was determined for 10 seconds. The desired amount of compounds (i.e. potential GPCR agonists) was then automatically transferred to the wells and the fluorescence was continuously monitored for the remainder of the time. All compounds were diluted in wash buffer.

In a further assay the target is receptor MRGX2 (human) (UniProt Q96LB1). In words: cell-based or functional assay.
For assay [2], the target named is T1, receptor MRGX2. The experiment in a line: Functional assay measuring intracellular calcium mobilisation (FLIPR). Format: cell-based. Details: expressed in transfected cells; host or cells: host cell line, e.g. HEK293 or CHO-K1, engineered to stably express Gα15 / Gqi-5. As to conditions: Preliminary EC50 data for receptor MRGX2; transiently transfected host cells expressing Gα15 / Gqi-5, Fluo3 fluorescence. The procedure: 5 x 10^6 cells of a suitable host cell line, chosen to express a low number of endogenous receptors (e.g. HEK293 or CHO-K1) and engineered to stably express Gα15 / Gqi-5, were transiently transfected with 7.5 µg of cDNA encoding receptor MRGX2 in a suitable mammalian cell expression vector, or vector alone, using Lipofectamine Plus® reagent (Gibco BRL) as per the manufacturer's protocol. If the cells were intended for a ligand binding assay or microphysiometry, they were incubated for 24-72 hours post transfection, and then harvested. […]
Fluorescence Imaging Plate Reader (FLIPR®) technology was employed as a means to detect activation of receptor MRGX2 by various potential GPCR agonists.
Cells were transfected as described in Example 3. […] The FLIPR® processing involved reading the fluorescence for all samples for 2 minutes; during this time the fluorescence baseline was determined for 10 seconds. The desired amount of compounds (i.e. potential GPCR agonists) was then automatically transferred to the wells and the fluorescence was continuously monitored for the remainder of the time. […]
Compounds capable of acting as agonists for the receptor were identified by them causing a transient rise in fluorescence, and therefore in intracellular calcium, in the cells.

In a further assay the target is five known SST receptors. The settings on record: range over the five known SST receptors; cited from earlier work.
The test system of another assay is SNSR3. As to conditions: SNSR3 (MRGX1); cited from earlier work.
The next assay has as its target MC4 receptor (Homo sapiens, UniProt P32245). As to conditions: cited from earlier work.
For assay [3] the following is noted: i.c.v. administration, free feeding rats, maximal response at 1nmol dose; cited from earlier work.
[4] abbreviates: Preliminary EC50 data for receptor MRGX2, transiently transfected host cells expressing Gα15 / Gqi-5, Fluo3 fluorescence, read-out: EC50.

Where two headings read alike, the source gives them in different places. Where a SMILES comes first, the peptide text is derived from it. Bridges are numbered along the chain shown (N, C = ends). [ ]: non-standard residue; d: D form. The star is where a group is joined. d2Nal = N[C@H](Cc1ccc2ccccc2c1)C(=O)O; Nle = CCCC[C@H](N)C(=O)O; Ahp = NCCCCCCC(=O)O; Bn = c1ccc(C*)cc1

Chain of MC4 receptor (P32245 whole entry): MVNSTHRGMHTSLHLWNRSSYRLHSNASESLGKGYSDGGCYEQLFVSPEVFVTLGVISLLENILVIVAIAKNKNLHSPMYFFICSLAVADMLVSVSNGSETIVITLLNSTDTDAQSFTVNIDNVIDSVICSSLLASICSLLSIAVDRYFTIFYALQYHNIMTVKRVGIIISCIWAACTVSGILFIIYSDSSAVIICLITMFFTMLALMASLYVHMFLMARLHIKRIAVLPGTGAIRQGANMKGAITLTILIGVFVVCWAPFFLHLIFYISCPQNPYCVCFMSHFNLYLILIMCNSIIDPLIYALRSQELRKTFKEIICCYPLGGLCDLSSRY

Turning to γ-MSH, the “response of the MRGX2 receptor” value with receptor MRGX2 [1] is given as “responds”. Consider “Dynorphin A (from UniProt P01213 207-219) (peptide)”, for which the EC50 (µM), intracellular calcium mobilisation (FLIPR) with receptor MRGX2 (human) is 1.85 µM. Still for that read-out and setting: then “N9642 (β-(2-Naphthyl)-D-Ala-Cys-Tyr-D-Trp-Lys-Val-Cys-Thr amide [Disulfide Bridge: 2-7] (sst2R agonist)) (peptide)”, with 0.251 µM. For `CSCC[C@H](NC(=O)[C@@H]1CCCN1C(=O)CNC(=O)[C@H](CCCCN)NC(=O)[C@H](Cc1cnc[nH]1)NC(=O)[C@H](CO)NC(=O)[C@H](CC(C)C)NC(=O)[C@H](CCCNC(=N)N)NC(=O)[C@@H]1CCCN1C(=O)[C@H](CCCNC(=N)N)NC(=O)[C@@H](N)CCC(N)=O)C(=O)N1CCC[C@H]1C(=O)N[C@@H](Cc1ccccc1)C(=O)O` [Apelin 13], the EC50 (commonly the midpoint of the concentration-response curve) at receptor MRGX2 [1] is more than 10000 nM.

As for “HS024 (Acetyl-Cys^3,Nle^4,Arg^5,D-2-Nal^7,Cys^11)-α-MSH (3-11) amide (from UniProt P01189 140-148) (peptide)”, the EC50 (µM), intracellular calcium mobilisation (FLIPR) with receptor MRGX2 (human) was determined as 0.42 µM.

Turning to NPSF (peptide), in the assay with receptor MRGX2 (human), the EC50 (µM), intracellular calcium mobilisation (FLIPR) was more than 10 µM. Same read-out and setting: to “NPAF (from UniProt O15130 93-110) (peptide)” belongs more than 10 µM.

Regarding “Nociceptin (from UniProt Q13519 130-146) (peptide)”, the EC50 (µM), intracellular calcium mobilisation (FLIPR) in the assay with receptor MRGX2 (human) was more than 10 µM.

Take `C[C@H](N)C(=O)NCC(=O)N[C@H]1CSSC[C@@H](C(=O)O)NC(=O)[C@H](CO)NC(=O)[C@H]([C@@H](C)O)NC(=O)[C@H](Cc2ccccc2)NC(=O)[C@H]([C@@H](C)O)NC(=O)[C@H](CCCCN)NC(=O)[C@@H](Cc2c[nH]c3ccccc23)NC(=O)[C@H](Cc2ccccc2)NC(=O)[C@H](Cc2ccccc2)NC(=O)[C@H](CC(N)=O)NC(=O)[C@H](CCCCN)NC1=O` [D-Trp-Somatostatin]: on receptor MRGX2 [1] (setting [4]), the concentration for a half-maximal effect (EC50) worked out at 179 nM. Take “Somatostatin 14 (from UniProt P61278 89-116) (peptide)”: the EC50 (µM), intracellular calcium mobilisation (FLIPR) in the assay with receptor MRGX2 (human) stood at 0.78 µM. Consider `Nc1ncnc2nc[nH]c12` [Adenine], for which the EC50 entry on receptor MRGX2 [2] is listed as “No response”.

Regarding “Oxytocin (from UniProt P01178 20-28) (peptide)”, the EC50 (µM), intracellular calcium mobilisation (FLIPR) with receptor MRGX2 (human) turned out to be 1.47 µM. The same measure, in the same setting: to “BAM 13-22 (from UniProt P01211 37-46) (peptide)” belongs 0.1 µM; to HS014 (peptide), more than 10 µM; to “D-Trp-Somatostatin (from UniProt P61278 103-116) (peptide)”, 0.179 µM. For the compound `C[C@@H](OCc1ccccc1)[C@@H]1NC(=O)[C@H](CCCCN)NC(=O)[C@@H](Cc2c[nH]c3ccccc23)NC(=O)[C@H](Cc2ccccc2)NC(=O)CCCCCCNC1=O` [Cyclosomatostatin] (cyclo([Ahp]F[dW]KT(Bn)); ring closure inferred), at receptor MRGX2 [1] (setting [4]), the EC50 came to 1470 nM. In the case of α-MSH, the “response of the MRGX2 receptor” value with receptor MRGX2 [1] is on record as “responds”. With “(Deamino-Cysl,D-Orn^8) Vasopressin (from UniProt P01185 20-28) (peptide)”, the EC50 (µM), intracellular calcium mobilisation (FLIPR) with receptor MRGX2 (human) is more than 10 µM. “(Ser^4, Ile^8)-Oxytocin (from UniProt P01178 20-28) (peptide)”: in the assay with receptor MRGX2 (human), the EC50 (µM), intracellular calcium mobilisation (FLIPR) stood at 7.4 µM.

Regarding “Cortistatin (PCKNFFWKTFSSCK) [CST, cyclic peptide derived from a prepropeptide of 114 residues in man]”, the EC50 at five known SST receptors was 0.25 to 0.9 nM. Take “Bovine adrenal medulla peptide 22 [BAM 22]”: the EC50 in the assay on SNSR3 is 13 nM. Take `CCCC[C@@H]1NC(=O)[C@@H](NC(C)=O)CSSC[C@@H](C(N)=O)NC(=O)CNC(=O)[C@H](Cc2c[nH]c3ccccc23)NC(=O)[C@H](CCCNC(=N)N)NC(=O)[C@@H](Cc2ccc3ccccc3c2)NC(=O)[C@H](Cc2c[nH]cn2)NC(=O)[C@H](CCCNC(=N)N)NC1=O` [HS024, (Acetyl-Cys^3,Nle^4,Arg^5,D-2-Nal^7,Cys^11)-a-MSH (3-11) amide] (Ac-C[Nle]RH[d2Nal]RWGC-NH2; disulfide 1-9 (inferred)): the Ki (in general, a dissociation constant, usually derived from enzyme kinetics or from competition with a known ligand) on MC4 receptor was 0.29 nM. Besides, the food intake result in assay [3] is given as “dose dependant increase in food intake”. With Octreotide (peptide), the EC50 (µM), intracellular calcium mobilisation (FLIPR) with receptor MRGX2 (human) is more than 10 µM. Still for that read-out and setting: to “Apelin 13 (from UniProt Q9ULZ1 65-77) (peptide)” belongs more than 10 µM. In the case of `CC[C@H](C)[C@@H]1NC(=O)[C@H](Cc2ccc(O)cc2)NC(=O)[C@@H](N)CSSC[C@@H](C(=O)N2CCC[C@H]2C(=O)N[C@@H](CC(C)C)C(=O)NCC(N)=O)NC(=O)[C@H](CC(N)=O)NC(=O)[C@H](CCC(N)=O)NC1=O` [Oxytocin], at receptor MRGX2 [1] (setting [4]), the 50% effective concentration (EC50) is 1470 nM. Turning to Hexarelin (peptide), the EC50 (µM), intracellular calcium mobilisation (FLIPR) with receptor MRGX2 (human) stood at 9.5 µM. For the compound `CC[C@H](C)[C@@H]1NC(=O)[C@H](Cc2ccc(O)cc2)NC(=O)[C@@H](N)CSSC[C@@H](C(=O)N2CCC[C@H]2C(=O)N[C@H](C(=O)NCC(N)=O)[C@@H](C)CC)NC(=O)[C@H](CC(N)=O)NC(=O)[C@H](CO)NC1=O` [(Ser^4, Ile^8)-Oxytocin] (H-CYISNCPIG-NH2; disulfide 1-6), the EC50 on receptor MRGX2 [1] (setting [4]) worked out at 7400 nM. Consider “NPVF (from UniProt Q9HCQ7 124-131) (peptide)”, for which the EC50 (µM), intracellular calcium mobilisation (FLIPR) in the assay with receptor MRGX2 (human) was more than 10 µM.

In the case of `CC(C)C[C@H](NC(=O)[C@H](CC(N)=O)NC(=O)[C@@H]1CCCN1C(=O)[C@@H](N)C(C)C)C(=O)N1CCC[C@H]1C(=O)N[C@@H](CCC(N)=O)C(=O)N[C@@H](CCCNC(=N)N)C(=O)N[C@@H](Cc1ccccc1)C(N)=O` [NPVF], at receptor MRGX2 [1] (setting [4]), the EC50 was more than 10000 nM.

On to `CC(C)[C@@H]1NC(=O)[C@H](CCCCN)NC(=O)[C@@H](Cc2c[nH]c3ccccc23)NC(=O)[C@H](Cc2ccc(O)cc2)NC(=O)[C@@H](NC(=O)[C@H](N)Cc2ccc3ccccc3c2)CSSC[C@@H](C(=O)N[C@H](C(N)=O)[C@@H](C)O)NC1=O` [Peptide N9642, β-(2-Naphthyl)-D-Ala-Cys-Tyr-D-Trp-Lys-Val-Cys-Thr amide [Disulfide Bridge: 2-7]], for which the 50% effective concentration (EC50) at receptor MRGX2 [1] (setting [4]) is 251 nM. Turning to Cyclosomatostatin (peptide), the EC50 (µM), intracellular calcium mobilisation (FLIPR) with receptor MRGX2 (human) is 1.47 µM.
